The labels stand for the following.
T1: Extracellular region of murine IL-11 receptor (residues 1-361) (murine, UniProt Q64385 24-361)
T1 construct: signal peptide in the construct; IL-11 receptor, murine, extracellular region, residues 1-361, expressed as a secreted soluble protein; Two copies stand in the hexameric IL-11H complex; also called soluble IL-11R; source: Drosophila S2 cells, stably transfected, secreted; purified from the media (protein A Sepharose, on-column cleavage with rhinovirus 3C protease); not shown: Fc, C-terminal, …
T1 sequence (looked up): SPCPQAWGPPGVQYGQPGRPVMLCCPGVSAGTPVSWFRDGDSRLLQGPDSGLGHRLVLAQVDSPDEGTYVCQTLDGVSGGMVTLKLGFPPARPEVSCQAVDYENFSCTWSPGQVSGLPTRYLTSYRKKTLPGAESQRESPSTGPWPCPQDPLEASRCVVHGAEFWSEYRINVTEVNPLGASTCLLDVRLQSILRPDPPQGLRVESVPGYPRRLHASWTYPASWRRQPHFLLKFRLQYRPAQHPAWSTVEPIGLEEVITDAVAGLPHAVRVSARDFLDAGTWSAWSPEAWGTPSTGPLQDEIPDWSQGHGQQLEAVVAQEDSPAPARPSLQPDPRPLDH

B1: Murine Interleukin 11 (residues 22-199) (ligand, UniProt P47873 22-199, looked up)
chain: PGPPAGSPRVSSDPRADLDSAVLLTRSLLADTRQLAAQMRDKFPADGDHSLDSLPTLAMSAGTLGSLQLPGVLTRLRVDLMSYLRHVQWLRRAGGPSLKTLEPELGALQARLERLLRRLQLLMSRLALPQAAPDQPVIPLGPPASAWGSIRAAHAILGGLHLTLDWAVRGLLLLKTRL
notes: Interleukin 11, murine, residues 22-199, subcloned into pET15b; Two copies stand in the hexameric IL-11H complex; also called IL-11
B2: Extracellular region of murine gp130 (residues 1-617) (receptor, UniProt Q00560 23-617, looked up)
chain: QLLEPCGYIYPEFPVVQRGSNFTAICVLKEACLQHYYVNASYIVWKTNHAAVPREQVTVINRTTSSVTFTDVVLPSVQLTCNILSFGQIEQNVYGVTMLSGFPPDKPTNLTCIVNEGKNMLCQWDPGRETYLETNYTLKSEWATEKFPDCQSKHGTSCMVSYMPTYYVNIEVWVEAENALGKVSSESINFDPVDKVKPTPPYNLSVTNSEELSSILKLSWVSSGLGGLLDLKSDIQYRTKDASTWIQVPLEDTMSPRTSFTVQDLKPFTEYVFRIRSIKDSGKGYWSDWSEEASGTTYEDRPSRPPSFWYKTNPSHGQEYRSVRLIWKALPLSEANGKILDYEVILTQSKSVSQTYTVTGTELTVNLTNDRYVASLAARNKVGKSAAAVLTIPSPHVTAAYSVVNLKAFPKDNLLWVEWTPPPKPVSKYILEWCVLSENAPCVEDWQQEDATVNRTHLRGRLLESKCYQITVTPVFATGPGGSESLKAYLKQAAPARGPTVRTKKVGKNEAVLAWDQIPVDDQNGFIRNYSISYRTSVGKEMVVHVDSSHTEYTLSSLSSDTLYMVRMAAYTDEGGKDGPEFTFTTPKFAQGEIE
notes: signal peptide in the construct; gp130, murine, extracellular region (domains D1-D6), residues 1-617, expressed as a secreted soluble protein; Two copies stand in the hexameric IL-11H complex; also called soluble gp130; source: human epithelial kidney 293T cells, transiently transfected, secreted; purified from the media (protein A Sepharose, on-column cleavage with rhinovirus 3C protease); not …

Experiment in all cases: cryo-EM structure; three affinity-purified subunits mixed with IL-11 in molar excess, complex purified by gel filtration (Superdex 200); 5 mM HEPES pH 7.5, 100 mM NaCl, 1 mM DTT, 0.25% β-octylglucopyranoside; 1 mg/ml, vitrified; single-particle reconstruction with C2 symmetry at 30 Å, homology model (IL-6 hexamer plus FNIII repeats) fitted
(In gel filtration, larger molecules generally elute earlier.)

Data set [1] addresses T1, Extracellular region of murine IL-11 …. Particulars: both partners purified.
Data set [2] has as its target B2. Particulars: both partners purified.
Data set [3] concerns the molecule itself.

In the case of B1, the binding result in data set [1] and in data set [2] was “binds” in each case.

On to B2, for which, in data set [3], the binding result was “binds”.

The values are drawn from PMC1885967, “The Dynamics of Signal Triggering in a gp130-Receptor Complex” (Structure(London, England:1993), 2007).
